The record followed here is US20200207830A1, “TREM2 MUTANTS RESISTANT TO SHEDDASE CLEAVAGE” (NOVARTIS AG, priority 2017, published 2020).

T1: ADAM10 (Homo sapiens, UniProt O14672)
T1 sequence (O14672 214-748): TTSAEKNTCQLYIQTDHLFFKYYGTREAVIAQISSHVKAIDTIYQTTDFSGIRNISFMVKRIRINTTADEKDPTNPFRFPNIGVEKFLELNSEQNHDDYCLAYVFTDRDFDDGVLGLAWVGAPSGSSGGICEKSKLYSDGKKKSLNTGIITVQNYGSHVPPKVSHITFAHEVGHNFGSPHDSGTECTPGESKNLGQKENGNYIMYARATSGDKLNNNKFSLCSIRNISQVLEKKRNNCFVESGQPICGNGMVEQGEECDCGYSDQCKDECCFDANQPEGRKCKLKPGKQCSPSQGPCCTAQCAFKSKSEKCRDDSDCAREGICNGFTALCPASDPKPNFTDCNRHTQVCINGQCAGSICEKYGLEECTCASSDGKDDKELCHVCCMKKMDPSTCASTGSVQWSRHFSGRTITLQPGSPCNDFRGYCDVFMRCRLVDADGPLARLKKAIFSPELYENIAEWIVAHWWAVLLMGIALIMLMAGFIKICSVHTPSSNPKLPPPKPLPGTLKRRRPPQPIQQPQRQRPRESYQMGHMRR

B1: TRUNCIII-159-174: human TREM2 mutant, deletion of the 16 amino acids 159-174 proximal to the transmembrane domain; SEQ ID NO: 44 (protein)
chain: MEPLRLLILLFVTELSGAHNTTVFQGVAGQSLQVSCPYDSMKHWGRRKAWCRQLGEKGPCQRVVSTHNLWLLSFLRRWNGSTAITDDTLGGTLTITLRNLQPHDAGLYQCQSLHGSEADTLRKVLVEVLADPLDHRDAGDLWFPGESESFEDAHVEHSILLLLACIFLIKILAASALWAAAWHGQKPGTHPPSELDCGHDPGYQLQTLPGLRDT
B2: T2-WFR: human TREM2 mutant, amino acids 169-172 replaced with larger hydrophobic residues; SEQ ID NO: 47 (protein)
chain: MEPLRLLILLFVTELSGAHNTTVFQGVAGQSLQVSCPYDSMKHWGRRKAWCRQLGEKGPCQRVVSTHNLWLLSFLRRWNGSTAITDDTLGGTLTITLRNLQPHDAGLYQCQSLHGSEADTLRKVLVEVLADPLDHRDAGDLWFPGESESFEDAHVEHSISRSLLEGEIWFRWTSILLLLACIFLIKILAASALWAAAWHGQKPGTHPPSELDCGHDPGYQLQTLPGLRDT
B3: T2del11-16: human TREM2 6 amino acid deletion mutant of the stalk region; SEQ ID NO: 45 (protein)
chain: MEPLRLLILLFVTELSGAHNTTVFQGVAGQSLQVSCPYDSMKHWGRRKAWCRQLGEKGPCQRVVSTHNLWLLSFLRRWNGSTAITDDTLGGTLTITLRNLQPHDAGLYQCQSLHGSEADTLRKVLVEVLADPLDHRDAGDLWFPGESESFEDAHVEHSEGEIPFPPTSILLLLACIFLIKILAASALWAAAWHGQKPGTHPPSELDCGHDPGYQLQTLPGLRDT
B4: T2-YGG: human TREM2 mutant, amino acids 156-164 replaced with larger hydrophobic residues; SEQ ID NO: 46 (protein)
chain: MEPLRLLILLFVTELSGAHNTTVFQGVAGQSLQVSCPYDSMKHWGRRKAWCRQLGEKGPCQRVVSTHNLWLLSFLRRWNGSTAITDDTLGGTLTITLRNLQPHDAGLYQCQSLHGSEADTLRKVLVEVLADPLDHRDAGDLWFPGESESFEDAHVYGGWGGWGPEGEIPFPPTSILLLLACIFLIKILAASALWAAAWHGQKPGTHPPSELDCGHDPGYQLQTLPGLRDT

No end group written: not given here.

ADAM17, sequence (P78536 215-824): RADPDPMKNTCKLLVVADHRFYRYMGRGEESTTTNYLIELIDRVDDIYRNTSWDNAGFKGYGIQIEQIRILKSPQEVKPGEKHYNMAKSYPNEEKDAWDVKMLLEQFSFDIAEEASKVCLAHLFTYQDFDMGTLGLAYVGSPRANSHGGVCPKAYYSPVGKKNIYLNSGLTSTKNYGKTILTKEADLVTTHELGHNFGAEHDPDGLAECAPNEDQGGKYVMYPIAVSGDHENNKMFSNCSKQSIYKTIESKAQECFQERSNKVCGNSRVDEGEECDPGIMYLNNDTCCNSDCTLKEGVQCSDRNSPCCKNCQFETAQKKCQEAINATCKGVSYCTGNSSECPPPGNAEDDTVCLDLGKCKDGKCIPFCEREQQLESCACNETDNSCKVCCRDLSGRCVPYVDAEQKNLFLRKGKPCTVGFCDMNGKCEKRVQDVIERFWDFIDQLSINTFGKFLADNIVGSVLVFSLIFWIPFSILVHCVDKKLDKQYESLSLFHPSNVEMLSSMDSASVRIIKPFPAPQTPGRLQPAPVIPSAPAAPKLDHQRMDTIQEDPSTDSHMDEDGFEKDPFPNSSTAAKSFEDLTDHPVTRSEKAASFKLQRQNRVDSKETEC

One test relates to HEK293-FT cells. Description: FACS analysis of cell surface expression of TREM2 WT and mutants in HEK293-FT cells with or without PMA. Format: cell-based. The note with it: co-transfected with hDAP12, 48 h, 30 min 50 ng/ml PMA, ratio of 1 = complete inhibition of shedding, FIG. 4B. An excerpt: FIGS. 4A-4D show the amino acid stretch in the membrane proximal part of the TREM2 stalk region are important for shedding. […] Amino acid numbering according to iProt Q9NZC2. TM: transmembrane region. Gaps indicate deleted amino acids within the respective mutant. Exchanged amino acids in bold. Underlined amino acids indicates main sheddase cleavage site for generation of the C-terminus of TREM2 ectodomain. […] FIG. 4B is a bar graph showing FACS analysis of TREM2 WT and mutants transiently expressed in HEK293-FT cells. Cells were treated 48 hours after transfection with 50 ng/ml PMA or 0.05% DMSO. Cells were detached, labelled with AF1828 antiserum and analyzed by flow cytometry. Data are plotted as the ratio of untreated over PMA treatment for each mutant as mean±S.E. (n=3). Statistical differences to WT were calculated by Anova with Dunnett's multiple comparison test. *P<0.01. TREM2-double mutant was stably expressed in BWZ-lacZ-mDAP12 cells. Cells were seeded on an activating monoclonal antibody or isotype control and reporter gene activity assessed after 16 h. Data are plotted as the ratio of RGA for activating/control Ab as mean±S.E. (n=3). FIG. 4D is a bar graph showing replacement of the three amino acids at the sheddase cleavage site strongly increases TREM2 cell surface expression. FACS analysis of TREM2 WT and mutants transiently expressed in HEK293-FT cells. Cells were treated 48 h after transfection with 50 ng/ml PMA or 0.05% DMSO. Cells were detached, labelled with AF1828 antiserum and analyzed by flow cytometry. Data are plotted as the ratio of untreated over PMA treatment for each mutant as mean±S.E. (n=3). Statistical differences were calculated by Anova with Dunnett's multiple comparison test. *P<0.01.
Human TREM2 mutants were generated using the QuikChange Site-directed Mutagenesis Kit (Stratagene) and confirmed by sequence analysis. Transfections of complementary DNA (cDNA) constructs were carried out in a 1:1 ratio of hDAP12 and TREM2 in HEK-FT cells using Lipofectamine LTX reagent (Thermofischer) according to the manufacturer's recommendations. 48 h after transfection cells were treated for 30 min with 50 ng/ml PMA or 0.05% DMSO and detached with a cell detachment solution Accutase (Sigma) and stained with goat anti human TREM2 antibody AF1828 (R&D Systems) or isotype control followed by incubation with the secondary Alexa Fluor 488 conjugated antibody (Molecular Probes). Acquisition was performed using a BD FACSCanto II (BD biosciences).
Wild-type (WT) TREM2 or TREM2 mutants were transfected together with hDAP12 into HEK-FT cells. 48 h later cells were treated for 30 min with PMA to activate ADAMs at cell surface (see Sommer, Nature Communications 7, 11523, 2016). TREM2 cell surface expression was assessed by FACS, and results are presented as expression ratio of untreated over PMA treatment (FIG. 4B). The evaluation of each construct in the presence and absence of PMA treatment overcomes the possibility that some constructs might display different binding properties for the antiserum and allows direct comparison of changes in TREM2 cell surface expression after activation of sheddases. A ratio of 1 indicates complete inhibition of shedding. […] Next four shorter deletion mutants were generated encompassing this area, each 6 amino acids long (TRUNC1, T2del3-8, T2del6-11 and T2del11-16).
For orientation: In flow cytometry, cells or beads pass a laser one at a time.
“TRUNC1: human TREM2 6 amino acid deletion mutant of the stalk region; SEQ ID NO: 14 (LWFPGESESFEDAHVEHSISRSLLEGEIILLLLAC)”: the “PMA induced TREM2 shedding (TREM2 cell surface expression ratio of untreated over PMA treatment)” value is recorded as “no or very little effect on shedding”. Turning to “T2del3-8: human TREM2 6 amino acid deletion mutant of the stalk region; SEQ ID NO: 15 (LWFPGESESFEDAHVEHSISRSLLEGTSILLLLAC)”, the “PMA induced TREM2 shedding (TREM2 cell surface expression ratio of untreated over PMA treatment)” value is “no or very little effect on shedding”. Take “T2del6-11: human TREM2 6 amino acid deletion mutant of the stalk region; SEQ ID NO: 16 (LWFPGESESFEDAHVEHSISRSLFPPTSILLLLAC)”: the “PMA induced TREM2 shedding (TREM2 cell surface expression ratio of untreated over PMA treatment)” value is “no or very little effect on shedding”. On to B1, for which the “PMA induced TREM2 shedding (TREM2 cell surface expression ratio of untreated over PMA treatment)” value was “maximally reduces TREM2 shedding”. On to B2, for which the “PMA induced TREM2 shedding (TREM2 cell surface expression ratio of untreated over PMA treatment)” value is reported as “more efficacious”.

As to B3, the “PMA induced TREM2 shedding (TREM2 cell surface expression ratio of untreated over PMA treatment)” value was “reduced PMA induced shedding”.

Regarding B4, the “PMA induced TREM2 shedding (TREM2 cell surface expression ratio of untreated over PMA treatment)” value is “trend for reduction of TREM2 shedding”.

In another test the target is ADAM17 (Homo sapiens, UniProt P78536). The test can be described thus: In vitro cleavage of TREM2 stalk region peptides by ADAM17 (HPLC). Format: biochemical. The note with it: neutral buffer, up to 48 hours, HPLC of parent peptide. The source says:
FIGS. 5A-5E show ADAM17 cleaves TREM2 stalk region peptides in vitro at H157-S158. […] All peptides were obtained with an N-terminal 7-methoxycoumarin (Mca) fluorescent tag […]. Underlined amino acids indicates main sheddase cleavage site. AA112-171: SEQ ID NO: 24; Peptide 1: SEQ ID NO: 25; Peptide 2: SEQ ID NO: 26; Peptide 3: SEQ ID NO: 27; Peptide la: SEQ ID NO: 28; Peptide 2a: SEQ ID NO: 29; Peptide 4: SEQ ID NO: 30; Peptide 5: SEQ ID NO: 31; Peptide 6: SEQ ID NO: 32. […] FIG. 5C discloses SEQ ID NOS 83, 51 and 84, respectively, in order of appearance.
(§1) In order to identify the cleavage site of ADAM10/ADAM17 within the stalk region of TREM2, in vitro cleavage patterns of stalk region-derived peptides were investigated and confirmed the cleavage site by determination of the C-terminus of shed soluble TREM2 from cell culture supernatants. A series of peptides covering the stalk region were designed for in vitro investigation of ADAM10/ADAM17 cleavage (FIG. 5A). All peptides were obtained with an N-terminal 7-methoxycoumarin (Mca) fluorescent tag. Peptides 1-3, 1a and 2a were incubated with ADAM17 in neutral buffer for up to 48 hours, and reaction was followed by HPLC analysis of aliquots withdrawn at different time points.
(§2) HPLC-MS analysis of the reaction mixture of peptide3/ADAM17 identified one major product, SISRSLLEGEIPFP-NH2(SEQ ID NO: 51), together with 2 minor cleavage products (FIGS. 5B-5C). […] At these time points there was essentially no substrate left. Therefore, it can be concluded that the minor cleavage products originate from secondary ADAM17 cleavage of the main product.
In the case of “1a: TREM2 stalk region derived synthetic peptide with 7-methoxycoumarin (Mca) tag; SEQ ID NO: 28 (VLVEVLADPLDHRD; also: 7-methoxycoumarin (Mca) tag, position not given here) [Peptide 1a]”, the “Cleavage by ADAM17” value is on record as “only very little or no reduction of the parent peptide”. “Peptide 2a: TREM2 stalk region derived synthetic peptide with 7-methoxycoumarin (Mca) tag; SEQ ID NO: 29 (ESESFEDAHVEH; also: 7-methoxycoumarin (Mca) tag, position not given here)”: the “Cleavage by ADAM17” value is listed as “only very little or no reduction of the parent peptide”. Take “Peptide 1: TREM2 stalk region derived synthetic peptide with 7-methoxycoumarin (Mca) tag; SEQ ID NO: 25 (SLHGSEADTLRKVLVEVLAD; also: 7-methoxycoumarin (Mca) tag, position not given here)”: the “Cleavage by ADAM17” value was “only very little or no reduction of the parent peptide”. Same read-out and setting: the entry for “Peptide 5: TREM2 stalk peptide, H-SI cleavage site replaced with IPD; SEQ ID NO: 31 (DAHVEIPDSRSLLEGEIPFP)” is “resistant to in vitro cleavage”; for “Peptide 2: TREM2 stalk region derived synthetic peptide with 7-methoxycoumarin (Mca) tag; SEQ ID NO: 26 (PLDHRDAGDLWFPGESESFE; also: 7-methoxycoumarin (Mca) tag, position not given here)” it is “only very little or no reduction of the parent peptide”.

The target in the next test is T1, ADAM10. Description: In vitro cleavage of TREM2 stalk region peptides by ADAM10. Format: biochemical. The note with it: data not shown.
Source text: as §1, §2
Recent literature gave insight into ADAM10 and ADAM17 preferences for the cleavage of peptides and proteins (Caescu et al., Biochem J 424, 79-88, 2009; Tucher et al., J Proteome Res 13, 2205-2214, 2014). […] After searching for the least preferred amino acids in substrates of ADAM10 and 17, isoleucine was identified as never occurring in P1 of ADAM substrates, and a very low preference for aspartate or proline in P1′ and in P2′. […] In these peptides the H-SI cleavage site was replaced with IPP, IPD, and IDP, respectively.
Take “Peptide 5: TREM2 stalk peptide, H-SI cleavage site replaced with IPD; SEQ ID NO: 31 (DAHVEIPDSRSLLEGEIPFP)”: the “Cleavage by ADAM10” value is “slowly cleaved”.
